Values joined by “and” are separate entries in the source; they are usually repeats but may differ in a detail not shown here. Equal entries are not always repeated.

The series deals with the molecule itself. The series is described as follows: SEC; size exclusion HPLC on TSKgel G3000SW; 20 uL purified GAD injected; isocratic elution at 1 mL/min for 30 min; 0.1 M sodium sulfate in 0.1 M phosphate buffer, pH 6.8; mix of monomer, dimer and tetramer.

B1: Escherichia coli glutamate decarboxylase fused to six histidine at its C-terminus (enzyme, E. coli, UniProt P69910 1-466, looked up)
chain: MDKKQVTDLRSELLDSRFGAKSISTIAESKRFPLHEMRDDVAFQIINDELYLDGNARQNLATFCQTWDDENVHKLMDLSINKNWIDKEEYPQSAAIDLRCVNMVADLWHAPAPKNGQAVGTNTIGSSEACMLGGMAMKWRWRKRMEAAGKPTDKPNLVCGPVQICWHKFARYWDVELREIPMRPGQLFMDPKRMIEACDENTIGVVPTFGVTYTGNYEFPQPLHDALDKFQADTGIDIDMHIDAASGGFLAPFVAPDIVWDFRLPRVKSISASGHKFGLAPLGCGWVIWRDEEALPQELVFNVDYLGGQIGTFAINFSRPAGQVIAQYYEFLRLGREGYTKVQNASYQVAAYLADEIAKLGPYEFICTGRPDEGIPAVCFKLKDGEDPGYTLYDLSERLRLRGWQVPAFTLGGEATDIVVMRIMCRRGFEMDFAELLLEDYKASLKYLSDHPKLQGIAQQNSFKHT
notes: glutamate decarboxylase (GAD, EC 4.1.1.15) of E. coli, gene amplified from genomic DNA (GenBank M84025); The reverse primer puts an XhoI site (CTCGAG, would encode Leu-Glu) between the last GAD codon and the six histidines; this is my reading of the primer; also called GAD; EGAD; source: E. coli BL21 (DE3), purified (HisTrap HP, buffer exchange on Sephadex G-25); not shown: His6, C-terminal, kept
Regarding B1, the “stoichiometry N” value was 2 and 4.
